One molecule from patent publication US20250288612A1 (TOPMUNNITY THERAPEUTICS TAIWAN, published 2025) can be followed below.

This assay concerns the target T1, recombinant PD-L1 (UniProt Q9NZQ7 19-238, limits assumed).
T1 construct: also called Programmed Death-Ligand 1
As to the kind of experiment: SPR, Biacore T200, multi-cycle kinetics, hTT-01 captured on Protein A chip, PD-L1 as analyte, 25 C. The method, then:
The chip contains MabSelect SuRe ligand on the surface, allowing orientation-specific binding of the Fc region of an antibody.
The assay was performed by using the Kinetic/Affinity wizard. The Flow path was 2-1, as the ligand was injected and captured in Flow cell 2 and Flow cell 1 acted as a reference. A series of concentrations of PD-L1 were injected over the reference and the ligand surface consecutively as the association phase with short dissociation phases in between by injection running buffer. Then regeneration solution was injected as the regeneration phase. All the procedures were conducted at 25° C.

T1 sequence (Q9NZQ7 19-238 limits assumed): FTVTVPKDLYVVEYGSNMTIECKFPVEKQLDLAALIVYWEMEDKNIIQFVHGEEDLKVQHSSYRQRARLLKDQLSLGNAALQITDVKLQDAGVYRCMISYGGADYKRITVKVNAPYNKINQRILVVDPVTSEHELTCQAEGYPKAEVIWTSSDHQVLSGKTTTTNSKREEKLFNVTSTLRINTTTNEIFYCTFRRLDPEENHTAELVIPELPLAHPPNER

B1: humanized anti-PD-L1 monoclonal antibody hTT-01 (antibody, V domains shown)
VH: EVQLVESGGGLVKPGGSLRLSCAASGFSLSNYVMSWVRQAPGKGLEWVATISSGGRYIYYTDSVKGRFTISRDNAKNSLYLQMNSLRAEDTAVYYCARDGSTLYYFDYWGQGTTVTVSS
VL: QTVLTQSPATLSLSPGERATLSCSASSSVDYMYWYQQKPGQAPRLLIYDTSNLATGIPARFSGSGSGTDFTLTISSLEPEDFATYYCQQWSSSPPITFGQGTKVEIK
notes: It was captured through its Fc on a Protein A chip, and an anti-human IgG secondary antibody was used in FACS; also called TT-01 humanized monoclonal antibody
Regarding B1, the dissociation constant (Kd) is 2.56 nM, the “half-life (t1/2) of the interaction” value is 1.31 h, the koff worked out at 0.000147 s⁻¹ and the kon was determined as 57700 M⁻¹ s⁻¹.
